# Measured values taken from patent US20260078171A1.
# Target: SARS-CoV-2 Wild-type (D614G) spike glycoprotein (SARS-CoV-2) (UniProt P0DTC2)
# Test: cell-based or functional assay
# Sequence of VYD222 (antibody) (VH): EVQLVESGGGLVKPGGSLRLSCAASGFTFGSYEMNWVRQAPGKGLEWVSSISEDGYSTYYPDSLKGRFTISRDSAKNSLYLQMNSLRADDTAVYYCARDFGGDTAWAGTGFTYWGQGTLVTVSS
# Sequence of VYD222 (antibody) (VL): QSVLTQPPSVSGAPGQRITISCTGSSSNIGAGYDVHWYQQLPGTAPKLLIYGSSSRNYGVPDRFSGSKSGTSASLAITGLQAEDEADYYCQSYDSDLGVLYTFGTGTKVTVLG
# Sequence of VYD224 (antibody) (VH): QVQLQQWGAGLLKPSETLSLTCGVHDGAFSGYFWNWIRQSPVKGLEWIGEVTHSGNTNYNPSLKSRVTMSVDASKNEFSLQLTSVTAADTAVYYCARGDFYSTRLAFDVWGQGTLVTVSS
# Sequence of VYD224 (antibody) (VL): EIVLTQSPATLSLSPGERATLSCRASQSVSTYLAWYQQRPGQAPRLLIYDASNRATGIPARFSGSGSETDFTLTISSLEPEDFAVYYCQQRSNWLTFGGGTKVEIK
# Sequence of VYD223 (antibody) (VH): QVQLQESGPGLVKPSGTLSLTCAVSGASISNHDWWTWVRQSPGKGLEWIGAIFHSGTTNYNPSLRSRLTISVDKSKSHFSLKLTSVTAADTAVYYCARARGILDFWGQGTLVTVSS
# Sequence of VYD223 (antibody) (VL): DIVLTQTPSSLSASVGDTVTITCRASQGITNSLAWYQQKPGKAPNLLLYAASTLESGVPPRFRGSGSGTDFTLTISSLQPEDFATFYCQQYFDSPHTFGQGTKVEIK
# Sequence of ADI-58125 (antibody) (VH): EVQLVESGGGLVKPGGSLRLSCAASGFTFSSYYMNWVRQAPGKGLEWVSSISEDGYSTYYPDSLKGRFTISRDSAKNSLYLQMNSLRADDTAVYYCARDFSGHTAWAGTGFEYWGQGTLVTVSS
# Sequence of ADI-58125 (antibody) (VL): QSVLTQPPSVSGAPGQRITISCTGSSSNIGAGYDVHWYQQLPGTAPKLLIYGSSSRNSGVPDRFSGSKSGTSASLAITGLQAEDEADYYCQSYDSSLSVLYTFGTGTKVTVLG
Substance,"IC50, authentic virus neutralization","IC90, authentic virus neutralization","IC50, lentivirus-based pseudovirus neutralization"
ADI-58125 (antibody),0.052 µg/mL,0.192 µg/mL,–
CoV2-2130 (antibody),0.016 µg/mL,0.074 µg/mL,–
LY-CoV1404 (antibody),0.021 µg/mL,0.09 µg/mL,–
VYD222 (antibody),0.033 µg/mL,0.193 µg/mL,0.03 µg/mL
VYD223 (antibody),0.012 µg/mL,0.014 µg/mL,–
VYD224 (antibody),0.01 µg/mL,0.037 µg/mL,0.03 µg/mL
